Assay results published in patent publication US11981935B2, “7β-hydroxysteroid dehydrogenase mutants and process for the preparation of ursodeoxycholic acid” (PharmaZell GmbH, priority 2010, dated 2024).
Substitutions are numbered along the chain they refer to. Numbers in names are those of the source. Entries after “also recorded” stand apart in the source; their conditions may differ.

Experiments:
[1] = target: 7β-HSDH from Collinsella aerofaciens DSM 3979 (Collinsella aerofaciens, UniProt A4ECA9); type: biochemical
7β-HSDH = 7β-HSDH (Collinsella aerofaciens, UniProt A4ECA9); test: Photometric identification of 7β-HSDH activity (production example 1); type: biochemical, Collinsella aerofaciens ATCC 25986; conditions: 0.1 mM test substance, potassium phosphate buffer 50 mM pH 8, in the presence of NADP+ or NADPH
Description: For identification of 7β-HSDH activity, the activity was investigated by a photometric method. In a 1 ml cuvette, enzyme and 0.1 mM of test substance (UDCA) were mixed in potassium phosphate buffer (50 mM, pH8).

[2] = substrate: NC(=O)C1=CN([C@@H]2O[C@H](COP(=O)(O)OP(=O)(O)OC[C@H]3O[C@@H](n4cnc5c(N)ncnc54)[C@H](OP(=O)(O)O)[C@@H]3O)[C@@H](O)[C@H]2O)C=CC1; test: purified protein, by the assay type; conditions: other: pH 8, 25° C.
[3] = substrate: NC(=O)c1ccc[n+]([C@@H]2O[C@H](COP(=O)([O-])OP(=O)(O)OC[C@H]3O[C@@H](n4cnc5c(N)ncnc54)[C@H](OP(=O)(O)O)[C@@H]3O)[C@@H](O)[C@H]2O)c1; test: purified protein, by the assay type; conditions: other: pH 8, 25° C.
[4] = Photometric activity of 7β-HSDH variants with NADPH or NADH (production example 7); type: biochemical, Collinsella aerofaciens; conditions: for Specific activity NADH / Volumetric activity NADH: cofactor NADH; for Specific activity NADPH / Volumetric activity NADPH: cofactor NADPH
[5] = substrate: C[C@H](CCC(=O)O)[C@H]1CC[C@H]2[C@@H]3C(=O)C[C@@H]4CC(=O)CC[C@]4(C)[C@H]3CC(=O)[C@]12C; test: Enzyme-kinetic investigation of the 7β-HSDH mutants; type: biochemical, Collinsella aerofaciens; conditions: other: 0.5 mM NADH
Excerpt: Altogether, the 7β-HSDH mutants G39D, G39D/R40L, G39D/R40I and G39D/R40V were produced. The G39D mutant is produced by Quickchange mutagenesis, and the other mutants are produced by the PCR method of Sanchis et al. (Sanchis J, Fernández L, Carballeira J D, Drone J, Gumulya Y, Höbenreich H, Kahakeaw D, Kille S, Lohmer R, Peyralans J J, Podtetenieff J, Prasad S, Soni P, Taglieber A, Wu S, Zilly F E, Reetz M T. Improved PCR method for the creation of saturation mutagenesis libraries in directed evolution: application to difficult-to-amplify templates. Appl Microbiol Biotechnol. 2008 November; 81(2): 387-97). The following primers were used for the mutagenesis, with the bases shown in italics coding in each case for the exchanged amino acid:
The mutants prepared are evaluated by means of enzyme-kinetic investigations, the results of which are shown as graphs in FIG. 11. […] The need to increase the cofactor concentration in the enzyme-kinetic investigation of the 7β-HSDH mutants is due to the increased semisaturation concentrations for the cofactor NADH in the mutants. From the plots of substrate concentration versus specific enzyme activity, the characteristic curves of Michaelis-Menten kinetics can be seen for the 7β-HSDH mutants, whereas the curve of Michaelis-Menten kinetics with substrate inhibition can be seen from the plot for the unmodified wild-type 7β-HSDH. Accordingly, the classical Michaelis-Menten model (equation 1) was used for evaluating the measurement series of the 7β-HSDH mutants and the Michaelis-Menten model with substrate inhibition was used for the measurement series of the unmodified wild-type 7β-HSDH (equation 2).
[formula] • EAx: specific enzyme activity, U mg^−1=μmol min^−1 mg^−1 • vmax: maximum specific enzyme activity, U mg^−1=μmol min^−1 mg^−1 • cS: substrate or cofactor concentration, mol L^−1 • Km: semisaturation concentration, mol L^−1
The following table gives enzyme-kinetic parameters of the unmodified wild-type 7β-HSDH and the mutants thereof with altered cofactor specificity. NADPH is used as cofactor for the wild type, whereas NADH is used as cofactor for the mutants.

[6] = Kinetic constants of FDH (mutant D221G) at pH 6, 7 and 8; type: biochemical, Mycobacterium vaccae

Molecule: NC(=O)c1ccc[n+]([C@@H]2O[C@H](COP(=O)([O-])OP(=O)(O)OC[C@H]3O[C@@H](n4cnc5c(N)ncnc54)[C@H](OP(=O)(O)O)[C@@H]3O)[C@@H](O)[C@H]2O)c1 [NADP^+]
- kcat [1]: 944.95 1 μmol/(μmol × min)
- Km ([1]; pH 8): 5.32 µM

Molecule: NC(=O)C1=CN([C@@H]2O[C@H](COP(=O)(O)OP(=O)(O)OC[C@H]3O[C@@H](n4cnc5c(N)ncnc54)[C@H](OP(=O)(O)O)[C@@H]3O)[C@@H](O)[C@H]2O)C=CC1 [NADPH]
- kcat [1]: 1033.44 1 μmol/(μmol × min)

Molecule: C[C@H](CCC(=O)O)[C@H]1CC[C@H]2[C@@H]3[C@@H](O)C[C@@H]4C[C@H](O)CC[C@]4(C)[C@H]3CC[C@]12C [UDCA, Ursodeoxycholic acid]
- Vmax [1]: 38.17 U/mg protein
- kcat [1]: 1179.39 1 μmol/(μmol × min)
- activity of 7β-HSDH against the test substance (7β-HSDH): 60 U/ml

Molecule: C[C@H](CCC(=O)O)[C@H]1CC[C@H]2[C@@H]3[C@H](O)C[C@@H]4C[C@H](O)CC[C@]4(C)[C@H]3C[C@H](O)[C@]12C [CA, Cholic acid]
- activity of 7β-HSDH against the test substance (7β-HSDH): no activity; also recorded: not detectable

Molecule: C[C@H](CCC(=O)O)[C@H]1CC[C@H]2[C@@H]3C(=O)C[C@@H]4C[C@H](O)CC[C@]4(C)[C@H]3CC[C@]12C [7-Keto-LCA, 7-Keto-lithocholic acid]
- activity of 7β-HSDH against the test substance (7β-HSDH): 35 U/ml

B1: 7β-HSDH from Collinsella aerofaciens DSM 3979 (ATCC 25986), wild type, SEQ ID NO:2 (Collinsella aerofaciens ATCC 25986) (protein)
chain: MNLREKYGEWGLILGATEGVGKAFCEKIAAGGMNVVMVGRREEKLNVLAGEIRETYGVETKVVRADFSQPGAAETVFAATEGLDMGFMSYVACLHSFGKIQDTPWEKHEAMINVNVVTFLKCFHHYMRIFAAQDRGAVINVSSMTGISSSPWNGQYGAGKAFILKMTEAVACECEGTGVDVEVITLGTTLTPSLLSNLPGGPQGEAVMKIALTPEECVDEAFEKLGKELSVIAGQRNKDSVHDWKANHTEDEYIRYMGSFYRD
- Km [2]: 4.50 µM
- Vmax [2]: 33.4 µmol/min/mg
- kcat [2]: 1033.44 μmol/(μmol × min)
- Km [3]: 5.32 µM
- Vmax [3]: 30.6 µmol/min/mg
- kcat [3]: 944.95 μmol/(μmol × min)

B2: Collinsella aerofaciens 7β-HSDH mutant G39D, SEQ ID NO:37 (parent SEQ ID NO:2) (Collinsella aerofaciens ATCC 25986; G39D) (protein)
chain: B1 chain with G39D
notes: made in house
- Specific activity NADH [4]: 0.1 U/mg
- Volumetric activity NADH [4]: 2 U/ml
- Specific activity NADPH [4]: 5.1 U/mg
- Volumetric activity NADPH [4]: 119 U/ml
- Km [5]: 660 ± 120 µM
- Vmax [5]: 2.9 µmol/min/mg

B3: Collinsella aerofaciens 7β-HSDH mutant G39D R40I, SEQ ID NO:39 (parent SEQ ID NO:2) (Collinsella aerofaciens ATCC 25986; G39D/R40I) (protein)
chain: B1 chain with G39D, R40I
notes: made in house
- Km [5]: 920 ± 170 µM
- Vmax [5]: 4.64 µmol/min/mg

B4: Collinsella aerofaciens 7β-HSDH mutant G39D R40V, SEQ ID NO:40 (parent SEQ ID NO:2) (Collinsella aerofaciens ATCC 25986; G39D/R40V) (protein)
chain: B1 chain with G39D, R40V
notes: made in house
- Km [5]: 880 ± 20 µM
- Vmax [5]: 2.69 µmol/min/mg

B5: Collinsella aerofaciens 7β-HSDH mutant G39D R40L, SEQ ID NO:38 (parent SEQ ID NO:2) (Collinsella aerofaciens ATCC 25986; G39D/R40L) (protein)
chain: B1 chain with G39D, R40L
notes: made in house
- Km [5]: 560 ± 80 µM
- Vmax [5]: 1.6 µmol/min/mg

B6: FDH: formate dehydrogenase from Mycobacterium vaccae N10, mutant D221G, utilizes both NAD+ and NADP+ (protein)
chain: MAKVLCVLYDDPVDGYPKTYARDDLPKIDHYPGGQILPTPKAIDFTPGQLLGSVSGELGLREYLESNGHTLVVTSDKDGPDSVFERELVDADVVISQPFWPAYLTPERIAKAKNLKLALTAGIGSDHVDLQSAIDRNVTVAEVTYCNSISVAEHVVMMILSLVRNYLPSHEWARKGGWNIADCVSHAYDLEAMHVGTVAAGRIGLAVLRRLAPFDVHLHYTGRHRLPESVEKELNLTWHATREDMYPVCDVVTLNCPLHPETEHMINDETLKLFKRGAYIVNTARGKLCDRDAVARALESGRLAGYAGDVWFPQPAPKDHPWRTMPYNGMTPHISGTTLTAQARYAAGTREILECFFEGRPIRDEYLIVQGGALAGTGAHSYSKGNATGGSEEAAKFKKAV
modifications: CDS (1)..(1203)
- Specific activity ([6]; pH 6, NAD+): 4.6 U × mg^−1
- Specific activity ([6]; pH 6, NADP+): 1 U × mg^−1
- Specific activity ([6]; pH 7, NAD+): 5.1 U × mg^−1
- Specific activity ([6]; pH 7, NADP+): 1.2 U × mg^−1
- Specific activity ([6]; pH 8, NAD+): 4.7 U × mg^−1
- Specific activity ([6]; pH 8, NADP+): 1 U × mg^−1

B7: G39D R40I: 7β-HSDH double mutant G39D/R40I, SEQ ID NO:39 (protein)
chain: B1 chain with G39D, R40I
- Specific activity NADH [4]: 0.8 U/mg
- Volumetric activity NADH [4]: 21 U/ml
- Specific activity NADPH [4]: 0 U/mg
- Volumetric activity NADPH [4]: 0 U/ml
